Patent publication US11078245B2, “Colon and pancreas cancer peptidomimetics” (PRECISION BIOLOGICS, INC., priority 2010, dated 2021)

Experiments:
CFPAC-1 Pancreatic = assay: Flow cytometry tumor cell binding; type: cell-based, human
Protocol: (§1) See International Patent Application No. PCT/US2011/41502.
(§2) FACs data showing NEO-101 antibody binding to colon cancer and pancreatic cancer cell lines. Cells were washed and suspended in either 2 μg/ml NEO-101-FITC or isotype control antibody-FITC for 1 hour, washed and then subjected to FACS analysis. Experiments with all cell lines were repeated at least three times. […] DAPI was used to stain the nucleus. […] The staining pattern of these pancreatic and colorectal tumor cells was predominantly membrane-associated, consistent with the expression profile of MUC5AC.

Colo-205 Colorectal = assay: Flow cytometry tumor cell binding; type: cell-based, human
Protocol: as §1, §2

LS174T Colorectal = assay: Flow cytometry tumor cell binding; type: cell-based, human
Protocol: as §1, §2

SW480 Colorectal = assay: Flow cytometry tumor cell binding; type: cell-based, human
Protocol: as §1, §2

CFPAC-1 cells = assay: Immunofluorescence staining with MUC5AC antibodies; type: cell-based, human; conditions: 2 μg/ml antibody
Protocol: LS174T and CFPAC-1 cells were grown on cover slips coated in FBS for 48 hours. Cells were then fixed with 4% PFA in PBS, washed with PBS, permeabilized with 0.2% Triton X-100, washed with PBS and blocked with 1% BSA in PBS. Cells were incubated with either 2 μg/ml NEO-101, MS-X, 2-11M1, H160, 351-450, 2-12M1, or 1-13M1. Cells were washed with PBS and then second antibody was added anti-human-FITC, anti-mouse-FITC or anti-rabbit-FITC (1:500), cells were washed and mounted on slides with DAPI hard mount. Cover slides were allowed to sit over night at 4° C. Slides were visualized with a Nikon Eclipse Ti microscope with an Andor camera.

AsPC-1 (Pancreatic) = assay: ADCC 4-hour 111-Indium release assay; type: cell-based, human
Protocol: (§3) The NEO-101 antibody was tested for antibody-dependent cell cytotoxicity (ADCC) activity against several colorectal and pancreatic tumor cell targets in vitro. The ADCC assay measures the amount of cell cytotoxicity that an antibody facilitates in a defined time period by the release of radiolabelled cytoplasmic proteins into the culture medium. […] The specific lytic activity was titratable with the number of effector cells in the assay.

CFPAC-1 (Pancreatic) = assay: ADCC 4-hour 111-Indium release assay; type: cell-based, human
Protocol: as §3

Colo-205 (Colorectal) = assay: ADCC 4-hour 111-Indium release assay; type: cell-based, human
Protocol: as §3

LS174T (Colorectal) = assay: ADCC 4-hour 111-Indium release assay; type: cell-based, human
Protocol: as §3

PANC-1 (Pancreatic) = assay: ADCC 4-hour 111-Indium release assay; type: cell-based, human
Protocol: as §3

SK-MEL (Melanoma) = assay: ADCC 4-hour 111-Indium release assay; type: cell-based, human
Protocol: as §3

SW1463 (Colorectal) = assay: ADCC 4-hour 111-Indium release assay; type: cell-based, human
Protocol: as §3

SW620 (Colorectal) = assay: ADCC 4-hour 111-Indium release assay; type: cell-based, human
Protocol: as §3

[1] = Preliminary non-GLP toxicity study; type: in vivo, BALB/c mice
Protocol: A preliminary non-GLP toxicity study using a research-grade preparation of NEO-101 was also conducted. Normal BALB/c mice were Injected with a single IV dose of saline, or 3, 10, 30, or 100 mg/kg of NEO-101 (n=3 female mice per group). In-life parameters measured included body weights and clinical observations. Mice were humanely sacrificed 72 hours following the injection and specimens were collected for analysis. Post-mortem parameters included macroscopic examination, blood cell counts, serum chemistries, and histopathological evaluation of selected major organs and tissues. […] No other toxicities were detected in these studies potentially associated with NEO-101, including during histopathological examination of the major organ systems in these mice.

Pharmacokinetics = type: in vivo, mice; conditions: for serum half-life (t½): single dose 100 mg/kg
Protocol: To determine whether gender impacted the disposition of NEO-101 in vivo, each treatment group contained four males and four females. Clearance, Cmax and half-life following a single dose of 10 or 100 mg/kg were compared by non-parametric Mann-Whitney test. […] However, the serum half-life of NEO-101 was shorter in females than in males. […] However, it is likely that this is a spurious observation, arising from high inter-animal variability, as this difference in half-life was not replicated following multiple doses, regardless of dose level.
The data provides useful guidance for the dosing schedule of possible therapeutic regimes. Mice injected intravenously with 10 mg/kg of NEO-101 may be used for comparison to the doses used in therapy regiments for humans, for instance.

[2] = system: lung cancer cell line A549; assay: Immunofluorescence with FITC labeled NEO-101; type: cell-based, human; conditions: 2 μg/ml FITC labeled antibody
CFPAC1 cells = assay: NEO-101-coupled Dynal beads rosette assay; type: cell-based, human; conditions: antibody-coupled Dynal beads with TBS, no M13 clone
Protocol: The M13 clones identified by the biopanning were also immunoassayed using magnetic beads. Aliquots of 5 μl M13 phage (10^11/10 μl) were mixed with 10 μl NEO-101-coupled Dynal® beads at RT for 20 min on a rotator. CFPAC1 cells (30 μl of 10^6 cells/ml) were added and incubated at 4° C. for 30 min. Rosetted cells were counted (>8 beads/cell).

[3] = normal BALB/c mice
Protocol: Mouse anti-NEO-101 antibody (MAHA) responses were also measured in this study (CB08-5110). The analysis employed an ELISA based assay to detect NEO-101-specific antibodies in mouse serum.

B1: NEO-101: Chimeric NEO-101 antibody, engineered in CHO-DG44 production cell clone 4B7; targets a variant of MUC5AC (protein)
light: QVVLTQSPVIMSASPGEKVTMTCSASSSISYMYWYQQKPGTSPKRWIYDTSKLASGVPARFSGSGSGTSYSLTISNMEAGDAATYYCHQRDSYPWTFGGGTNLEIK
heavy: QVQLKESGPDLVAPSQSLSITCTVSGFSLSKFGVNWVRQPPGKGLEWLGVIWGDGSTSYNSGLISRLSISKENSKSQVFLKLNSLQADDTATYYCVKPGGDYWGHGTSVTVSS
- % Cells Stained (CFPAC-1 Pancreatic; CFPAC-1): 52.56%
- mfi (CFPAC-1 Pancreatic; CFPAC-1): 59
- Percent positive (CFPAC-1 Pancreatic; CFPAC, 2 μg/ml FITC antibody, FACS): 52.56%
- % Cells Stained (Colo-205 Colorectal): 94.67%
- mfi (Colo-205 Colorectal): 175
- Percent positive (Colo-205 Colorectal; 2 μg/ml FITC antibody, FACS): 94.67%
- Percent positive (LS174T Colorectal; LS174, 2 μg/ml FITC antibody, FACS): 89.72%
- % Cells Stained (LS174T Colorectal; LS174T): 89.72%
- mfi (LS174T Colorectal; LS174T): 103
- % Cells Stained (SW480 Colorectal): 58.98%
- mfi (SW480 Colorectal): 118
- Percent positive (SW480 Colorectal; 2 μg/ml FITC antibody, FACS): 58.98%
- cells stained (CFPAC-1 cells): about 50%
- % Specific Killing (±SEM) (AsPC-1 (Pancreatic); Effector:Target 12.5:1): 26.5 ± 6.7%
- % Specific Killing (±SEM) (AsPC-1 (Pancreatic); Effector:Target 25:1): 36.2 ± 2.6%
- % Specific Killing (±SEM) (AsPC-1 (Pancreatic); Effector:Target 50:1): 44.5 ± 6.8%
- % Specific Killing (±SEM) (CFPAC-1 (Pancreatic); Effector:Target 12.5:1): 11.1 ± 1.6%
- % Specific Killing (±SEM) (CFPAC-1 (Pancreatic); Effector:Target 25:1): 23.2 ± 2.2%
- % Specific Killing (±SEM) (CFPAC-1 (Pancreatic); Effector:Target 50:1): 26.9 ± 1.6%
- % Specific Killing (±SEM) (Colo-205 (Colorectal); Effector:Target 12.5:1): 32.8 ± 2.0%
- % Specific Killing (±SEM) (Colo-205 (Colorectal); Effector:Target 25:1): 46.4 ± 1.6%
- % Specific Killing (±SEM) (Colo-205 (Colorectal); Effector:Target 50:1): 66.7 ± 0.6%
- % Specific Killing (±SEM) (LS174T (Colorectal); Effector:Target 12.5:1): 9.5 ± 0.5%
- % Specific Killing (±SEM) (LS174T (Colorectal); Effector:Target 25:1): 18.5 ± 4.1%
- % Specific Killing (±SEM) (LS174T (Colorectal); Effector:Target 50:1): 26.8 ± 2.9%
- % Specific Killing (±SEM) (PANC-1 (Pancreatic); Effector:Target 12.5:1): 21.2 ± 0.6%
- % Specific Killing (±SEM) (PANC-1 (Pancreatic); Effector:Target 25:1): 33.2 ± 3.3%
- % Specific Killing (±SEM) (PANC-1 (Pancreatic); Effector:Target 50:1): 46.8 ± 2.1%
- % Specific Killing (±SEM) (SK-MEL (Melanoma); Effector:Target 12.5:1): 2.3 ± 0.6%
- % Specific Killing (±SEM) (SK-MEL (Melanoma); Effector:Target 25:1): 3.3 ± 1.1%
- % Specific Killing (±SEM) (SK-MEL (Melanoma); Effector:Target 50:1): 4.6 ± 1.1%
- % Specific Killing (±SEM) (SW1463 (Colorectal); Effector:Target 12.5:1): 17.9 ± 1.7%
- % Specific Killing (±SEM) (SW1463 (Colorectal); Effector:Target 25:1): 25.5 ± 0.6%
- % Specific Killing (±SEM) (SW1463 (Colorectal); Effector:Target 50:1): 33.8 ± 1.0%
- % Specific Killing (±SEM) (SW620 (Colorectal); Effector:Target 12.5:1): 51.5 ± 0.9%
- % Specific Killing (±SEM) (SW620 (Colorectal); Effector:Target 25:1): 61.0 ± 1.8%
- % Specific Killing (±SEM) (SW620 (Colorectal); Effector:Target 50:1): 63.7 ± 2.9%
- serum aspartate transaminase (AST) ([1]; 2 out of 3 mice that received 100 mg/kg): mild, but statistically insignificant elevation
- body weight, blood cell counts, and histopathology of 7 major organs and tissues ([1]; single IV dose 3, 10, 30 or 100 mg/kg, 72 hours): no significant changes
- serum half-life (t½) (Pharmacokinetics; females): 109.5 ± 14.72 h
- serum half-life (t½) (Pharmacokinetics; males): 285.4 ± 139.5 h
- clearance (Pharmacokinetics; mice): low clearance
- volume of distribution (Pharmacokinetics; mice): limited volume of distribution
- gender-specific differences in clearance or Cmax (Pharmacokinetics; single dose of 10 or 100 mg/kg): No significant gender-specific differences were observed
- binding by immunofluorescence [2]: does not bind
- Positive rosette cells (%) (CFPAC1 cells): 41%
- immunogenicity (MAHA response) [3]: only mildly immunogenic
